Here are results for four substances from patent US20220291215A1.

Test [1] deals with memory CD4+ T cells from DP4+ donors, unstimulated (a small subset; their TCRs). As to the kind of experiment: flow cytometry ex vivo; 80783 evts in the dimer- CD4+ gate. (In general: A flow cytometer gives signals particle by particle.)
Test [2] shares this target. Description: flow cytometry ex vivo; 122665 evts in the dimer- CD4+ gate.
For test [3] the target is unchanged. Description: flow cytometry ex vivo; 71402 evts in the dimer- CD4+ gate.
For test [4] the target is unchanged. As to the kind of experiment: flow cytometry ex vivo; 50227 evts in the dimer- CD4+ gate.
Test [5] shares this target. As to the kind of experiment: flow cytometry ex vivo; 160045 evts in the dimer- CD4+ gate.
The target of test [6] is DQ6 (DQA1*01:02-DQB1*06:02)-restricted influenza virus HA-specific TCR (DM2). As to the kind of experiment: flow cytometry, TCR-transduced primary T cells.
In test [7] the target is memory CD4+ T cells from DP4+ donors, unstimulated (a small subset; their TCRs). As to the kind of experiment: flow cytometry ex vivo; 82428 evts in the dimer- CD4+ gate.
For test [8] the target is unchanged. Description: flow cytometry ex vivo; 122436 evts in the dimer- CD4+ gate.
Test [9] has the same target. Description: flow cytometry ex vivo; 73637 evts in the dimer- CD4+ gate.
Test [10] has the same target. Description: flow cytometry ex vivo; 159441 evts in the dimer- CD4+ gate.
Test [11] shares this target. As to the kind of experiment: flow cytometry ex vivo; 49894 evts in the dimer- CD4+ gate.

In the case of “DP4^L112W/V141M dimer loaded with respiratory syncytial virus glycoprotein162-175 (RSV-GP162-175) (peptide-MHC)”, the events in the dimer+ CD4+ gate was 4 evts in [1]; 10 evts in test [2]; 25 evts in test [3]; 1 evts in test [4]; 37 evts in test [5].
With “Control (DQ6^L114W/V143M+3reps dimer) (peptide-MHC)”, in test [6], the % dimer+ CD4+ cells is 0.1%.
Regarding “DP4^L112W/V141M dimer loaded with herpes simplex virus type-2-UL21283-302 (HSV-2-UL21283-302) (peptide-MHC)”, the events in the dimer+ CD4+ gate was determined as 1 evts in test [7]; 6 evts in test [8]; 8 evts in test [9]; 1 evts in [10]; 1 evts in test [11].
Turning to “DR1 dextramer (PE), Flu-HA306-318 (peptide-MHC)”, the percent multimer-positive CD4+ cells (number at the gate) in the test with DR1-restricted TCR HA1.7 came to 30.4%.
